Experimental data from paper PMC6359636, “Advances in Drug Delivery and Biomaterials: Facts and Vision” (Pharmaceutics, 2019).

Test system: blood clots
Assay: Blood clot resolution in murine mesentery venules
Format: in vivo
Description: Here, a novel thrombolytic nanoagent is realized by conjugating directly the clinical formulation of tPA to the porous structure of soft discoidal polymeric nanoconstructs (tPA-DPNs).

B1: Tissue plasminogen activator (protein, UniProt P00750 36-562, looked up)
Tissue-type plasminogen …: SYQVICRDEKTQMIYQQHQSWLRPVLRSNRVEYCWCNSGRAQCHSVPVKSCSEPRCFNGGTCQQALYFSDFVCQCPEGFAGKCCEIDTRATCYEDQGISYRGTWSTAESGAECTNWNSSALAQKPYSGRRPDAIRLGLGNHNYCRNPDRDSKPWCYVFKAGKYSSEFCSTPACSEGNSDCYFGNGSAYRGTHSLTESGASCLPWNSMILIGKVYTAQNPSAQALGLGKHNYCRNPDGDAKPWCHVLKNRRLTWEYCDVPSCSTCGLRQYSQPQFRIKGGLFADIASHPWQAAIFAKHRRSPGERFLCGGILISSCWILSAAHCFQERFPPHHLTVILGRTYRVVPGEEEQKFEVEKYIVHKEFDDDTYDNDIALLQLKSDSSRCAQESSVVRTVCLPPADLQLPDWTECELSGYGKHEALSPFYSERLKEAHVRLYPSSRCTSQHLLNRTVTDNMLCAGDTRSGGPQANLHDACQGDSGGPLVCLNDGRMTLVGIISWGLGCGQKDVPGVYTKVTNYLDWIRDNMRP
With B1 the “clots dissolved / vessels” value (1.0 mg/kg, about 1 tenth of the clinical dose) was 16% and the “blood clots resolved / vessels recanalized” value (intravenous, 2.5 mg/kg) was “about 40%”.
